In patent US20120122115A1, “Bacterial quorum sensing biosensor” (priority 2006, published 2012):

Assay: FRET response of LuxP BAI-2 binding site mutant biosensors to BAI-2
Experimental: Site-directed mutations were carried out using the QuikChange mutagenesis kit (Stratagene). The perGFP plasmid containing the gene encoding the green fluorescent protein (GFP) is used for creating cyan and yellow variants CFP and YFP, respectively. An L221K mutation is introduced into the gene encoding CFP or YFP to reduce the possible level of intermolecular dimerization. Cloning vector pSP72 (Promega) is used for creating 5′ to 3′ end-to-end gene fusions of PCR fragments containing the genes encoding CFP (5′ KpnI/3′ EagI), V. harveyi LuxP (70 to 1095 bp; 5′ EagI/3′ NotI), and YFP (5′ NotI/3′ PstI), generating plasmid pSP72-CLPY. The CLPY gene fusion is removed using the restriction enzymes KpnI and PstI and subcloned into a pQE-30 bacterial expression vector (Qiagen) containing an N-terminal six-His tag, generating plasmid pQE30-CLPY. LuxP BAI-2 binding site mutants pQE30-M2CLPY (Q77A and S79A) and pQE30-M3CLPY (Q77A, S79A, and W82F) are created using pQE30-CLPY as a template and confirmed by DNA sequence analysis.
The YFP or CFP fluorescence response of wild-type and mutant forms of CLPY (1.0 mL, 0.015 mg/mL) to different ligands is measured 5 minutes after addition of the ligand to the protein at room temperature. No time-dependent changes in the CLPY FRET ratio are observed after incubation for 5 minutes. […]

B1: M3CLPY: CLPY with LuxP BAI-2 binding site mutations Q77A, S79A, and W82F (protein)
chain: MRGSHHHHHHGSACELGTMKGEELFTGVVPILVELDGDVNGHKFSVSGEGEGDATYGKLTLKFICTTGKLPVPWPTLVTTLTWGVQCFSRYPDHMKQHDFFKSAMPEGYVQQRTIFFKDDGNYKTRAEVKFEGDTLVNRIELKGIDFKEDGNILGHKLEYNYISHNVYITADKQKNGIKANFKIRHNIEDGSVQLADHYQQNTPIGDGPVLLPDNHYLSIQSALSKDPNEKRDHMVLKEFVTAAGITHGMDELYTADGVLNGYWGYQEFLDEFPEQRNLTNALSEAVRAQPVPLSKPTQRPIKISVVYPGQAVADYFVRNIASFEKRLYKLNINYQLNQVFTRPNADIKQQSLSLMEALKSKSDYLIFTLDTTRHRKFVEHVLDSTNTKLILQNITTPVREWDKHQPFLYVGFDHAEGSRELATEFGKFFPKHTYYSVLYFSEGYISDVRGDTFIHQVNRDNNFELQSAYYTKATKQSGYDAAKASLAKHPDVDFIYACSTDVALGAVDALAELGREDIMINGWGGGSAELDAIQKGALDITVMRMNDDTGIAMAEAIKWDLEDKPVPTVYSGDFEIVTKADSPERIEALKKRAFRYSDNGGAAAKGEELFTGVVPILVELDGDVNGHKFSVSGEGEGDATYGKLTLYFICTTGKLPVPWPTLVTTLGYGLKCFARYPDHMKQHDFFKSAMPEGYVQERTIFFKDDGNYKTRAEVKFEGDTLVNRIELKGIDFKEDGNILGHKLEYNYNSHNVYIMADKQKNGIKVNFKIRHNIEDGSVQLADHYQQNTPIGDGPVLLPDNHYLSYQSALSKDPNEKRDHMVLKEFVTAAGITHGMDELYK
Q: Which results are given for B1?
A: FRET response to BAI-2 (qualitative) (following addition of BAI-2, compared to wild-type CLPY): insensitive to BAI-2; FRET response relative to the wild-type biosensor (supersaturating BAI-2 (10 μM)): 18%
